The record followed here is patent US20150197558A1 (published 2015).

Experiment [1] addresses T1, IHF from Staphylococcus aureus (Staphylococcus aureus, UniProt Q5HFV0 1-90).
T1 construct: also called IHF (Sa); HU; not shown: poly-histidine tag
T1 sequence: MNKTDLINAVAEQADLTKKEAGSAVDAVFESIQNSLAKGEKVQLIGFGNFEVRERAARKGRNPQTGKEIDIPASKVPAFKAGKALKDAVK
The experiment can be described thus: ELISA. (ELISA stands for enzyme-linked immunosorbent assay.)

For experiment [2], the target named is T1, IHF from Staphylococcus aureus. The experiment can be described thus: ELISA, antigen coated, half-maximal binding concentration printed as Affinity (pM).
The target in experiment [3] is T2, IHF from Acinetobacter baumannii (Acinetobacter baumannii, UniProt A3M2B0 1-98).
T2 construct: also called Ab
T2 sequence: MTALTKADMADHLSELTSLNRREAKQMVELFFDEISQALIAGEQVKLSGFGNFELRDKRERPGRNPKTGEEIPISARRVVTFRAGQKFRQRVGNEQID
Described as above.

Experiment [4] deals with T3, IHF from Haemophilus influenzae (Haemophilus influenzae, UniProt P43723 1-96).
T3 construct: also called IHF (Hi); H. influenzae; not shown: poly-histidine tag
T3 sequence: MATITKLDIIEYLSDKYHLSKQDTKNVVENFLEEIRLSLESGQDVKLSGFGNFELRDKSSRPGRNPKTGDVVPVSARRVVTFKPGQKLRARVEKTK
The experiment can be described thus: ELISA.

The target in experiment [5] is T4, IHF from Pseudomonas aeruginosa (Pseudomonas aeruginosa, UniProt Q51472 2-100).
T4 construct: also called IHF (Pa); P. aeruginosa; not shown: poly-histidine tag
T4 sequence: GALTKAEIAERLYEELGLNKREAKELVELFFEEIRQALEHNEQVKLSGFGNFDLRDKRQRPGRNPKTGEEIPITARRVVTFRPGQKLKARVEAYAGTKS
Description: ELISA.

Experiment [6] has as its target T5, IHF from Klebsiella pneumoniae (Klebsiella pneumoniae, UniProt A6TAI1 1-99).
T5 construct: also called IHF (Kp); K. pneumoniae
T5 sequence: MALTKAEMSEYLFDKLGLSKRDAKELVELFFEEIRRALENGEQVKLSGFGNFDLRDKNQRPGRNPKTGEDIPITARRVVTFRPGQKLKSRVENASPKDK
Description: ELISA.

The target in experiment [7] is peptide 20 of the set of overlapping 15-mer peptides from the IHF of Staphylococcus aureus (Staphylococcus aureus). The experiment can be described thus: peptide binding on streptavidin plates.
The target of experiment [8] is peptide 19 of the set of overlapping 15-mer peptides from the IHF of Staphylococcus aureus (Staphylococcus aureus). The experiment can be described thus: peptide binding on streptavidin plates.
Experiment [9] concerns the target peptide 26 of the set of overlapping 15-mer peptides from the IHF of Staphylococcus aureus (Staphylococcus aureus). The experiment can be described thus: peptide binding on streptavidin plates.
The target of experiment [10] is T3, IHF from Haemophilus influenzae. The experiment can be described thus: ELISA, antigen coated, half-maximal binding concentration printed as Affinity (pM).
Experiment [11] has as its target T4, IHF from Pseudomonas aeruginosa. Described as above.
The target in experiment [12] is T5, IHF from Klebsiella pneumoniae. Described as above.
For experiment [13], the target named is IHF target of the pH table of Example 7 (homolog not stated). Description: pH dependence of binding, pH 3.5; ELISA per legend of FIGS. 6A-6B.
Experiment [14] concerns the target T3, IHF from Haemophilus influenzae. Description: BLI, ForteBio Octet QK, ratio of on and off rates. A general note: In BLI a coated tip is dipped into the sample, and binding shifts an interference pattern.
Experiment [15] has as its target T1, IHF from Staphylococcus aureus. The experiment can be described thus: BLI, ForteBio Octet QK, ratio of on and off rates.
In experiment [16] the target is T4, IHF from Pseudomonas aeruginosa. The experiment can be described thus: BLI, ForteBio Octet QK, ratio of on and off rates.
Experiment [17] has as its target T5, IHF from Klebsiella pneumoniae. Description: BLI, ForteBio Octet QK, ratio of on and off rates.
Experiment [18] addresses IHF target of the pH table of Example 7 (homolog not stated). Description: pH dependence of binding, pH 5.5; ELISA per legend of FIGS. 6A-6B.
Experiment [19] has the same target. The experiment can be described thus: pH dependence of binding, pH 7.5; ELISA per legend of FIGS. 6A-6B.
Experiment [20] has the same target. The experiment can be described thus: pH dependence of binding, pH 6.5; ELISA per legend of FIGS. 6A-6B.
Experiment [21] shares this target. Description: pH dependence of binding, pH 2.5; ELISA per legend of FIGS. 6A-6B.
Experiment [22] shares this target. The experiment can be described thus: pH dependence of binding, pH 4.5; ELISA per legend of FIGS. 6A-6B.

B1: TRL1215 (antibody, V domains shown)
VH: QVQLVESGTEVKNPGASVKVSCTASGYKFDEYGVSWVRQSPGQGLEWMGWISVYNGKTNYSQNFQGRLTLTTETSTDTAYMELTSLRPDDTAVYYCATDKNWFDPWGPGTLVTVSS
VL: DIVMTQSPSASGSPGQSITISCTGTNTDYNYVSWYQHHPGKAPKVIIYDVKKRPSGVPSRFSGSRSGNTATLTVSGLQTEDEADYYCVSYADNNHYVFGSGTKVTVL
The molecule B1 gave an OD in experiment [1] of 1.4 OD.

B2: TRL1330 (antibody, V domains shown)
VH: QVQLVESGTEVKNPGASVKVSCTASGYKFDEYGVSWVRQSPGQGLEWMGWISVYNGKTNYSQNFQGRLTLTTETSTDTAYMELTSLRPDDTAVYYCATDKNWFDPWGPGTLVTVSS
VL: DIVLTQSPSASGSPGQSITISCTGTNTDYNYVSWYQHHPGKAPKVIIYDVKKRPSGVPSRFSGSRSGNTATLTVSGLQTEDEADYYCVSYADNNHYVFGSGTKVTVL
Broadly, the EC50 is the concentration at which the effect is half-maximal. Turning to B2, the values for the concentration for a half-maximal effect (EC50) in experiment [2] and in [3] were 23 pM and 17 pM, respectively.

B3: TRL1218 (antibody, V domains shown)
VH: QVQLLESGADMVQPGRSLRLSCAASGFNFRTYAMHWVRQAPGKGLEWVAVMSHDGYTKYYSDSVRGQFTISRDNSKNTLYLQMNNLRPDDTAIYYCARGLTGLSVGFDYWGQGTLVTVSS
VL: DIVLTQSASVSGSPGQSITISCTGTSSDVGGYNYVSWYQQHPGKAPKLMIYDVTTRPSGVSDRFSGSKSGNTASLTISGLQAEDEADYYCSSYSSGSTPALFGGGTQLTVL
For B3, the OD in experiment [4] came to 0.04 OD; in experiment [5], 0.09 OD; in experiment [6], 0.06 OD.

B4: TRL1335 (antibody, V domains shown)
VH: QVQLVESGAEVKKPGESLKISCKGSGYNFTSYWIGWVRQMPGKGLEWMGVIYPDDSDTRYSPSFKGQVTISADKSISTAFLQWSSLKASDTAVYHCARPPDSWGQGTLVTVSS
VL: DIVMTQSPATLSVSPGERATLSCRASQSVSSNLAWYQQKPGLAPRLLIVGASNRATGIPARFSGSGSGTEFTLTISSLQSEDFAFYYCQQYNNWPFTFGPGTKVDVKR
Take B4: the binding result in experiment [7], in [8] and in experiment [9] was “no binding” in each case.

B5: TRL1068 (antibody, V domains shown)
VH: QVQLVESGPGLVKPSETLSLTCRVSGDSNRPSYWSWIRQAPGKAMEWIGYVYDSGVTIYNPSLKGRVTISLDTSKTRFSLKLTSVIAADTAVYYCARERFDRTSYKSWWGQGTQVTVSS
VL: DIVLTQAPGTLSLSPGDRATLSCRASQRLGGTSLAWYQHRSGQAPRLILYGTSNRATDTPDRFSGSGSGTDFVLTISSLEPEDFAVYYCQQYGSPPYTFGQGTTLDIK
By Kd is commonly meant a measure of binding affinity in units of concentration. B5: the EC50 was determined as 5000 pM in experiment [10]; 15 pM in experiment [2]; 10 pM in experiment [3]; 11 pM in experiment [11]; 11 pM in experiment [12]. The equilibrium dissociation constant (Kd) is 1200 pM in [13]; 350000 pM in experiment [14]; 1000 pM in experiment [15]; 1000 pM in experiment [16]; 7000 pM in experiment [17]; 9 pM in experiment [18]. The Kd amounted to 7 pM in experiment [19], 7.6 pM in [20], 2700 pM in experiment [21] and 23.6 pM in [22].

B6: TRL1087 (antibody, V domains shown)
VH: QVQLLESGPGLVRPSDTLSLTCTFSADLSTNAYWTWIRQPPGKGLEWIGYMSHSGGRDYNPSFNRRVTISVDTSKNQVFLRLTSVTSADTAVYFCVREVGSYYDYWGQGILVTVSS
VL: DIEMTQSPSSLSASVGDRITITCRASQGISTWLAWYQQKPGKAPKSLIFSTSSLHSGVPSKFSGSGSGTDFTLTITNLQPEDFATYYCQQKWETPYSFGQGTKLDMIR
For B6, the OD in [4] turned out to be 0.06 OD; in experiment [1], 0.14 OD; in [5], 0.06 OD; in [6], 0.06 OD.

B7: TRL1070 (antibody, V domains shown)
VH: QVQLVQSGGTLVQPGGSLRLSCAASGFTFSYYSMSWVRQAPGKGLEWVANIKHDGTERNYVDSVKGRFTISRDNSEKSLYLQMNSLRAEDTAVYYCAKYYYGAGTNYPLKYWGQGTRVTVSS
VL: DILMTQSPSSLSASVGDRVTITCRASQGIRNDLGWYQQKPGKAPKLLIYAASSLQSGVPSRFSGSGSGTDFTLTISSLQPEDFATYYCLQDYNYPLTFGGGTKVEIKR
Take B7: the OD was found to be 0.11 OD in experiment [4] and 0.3 OD in [1].

B8: TRL1232 (antibody, V domains shown)
VH: QVQLVESGAEVKKPGALVKVSCKASGYTFSGYYMHWVRQAPGQGLEWMGWINPKSGGTKYAQKFQGRVTMTRDTSISTAYMELSRLRSDDTAVYFCARGGPSNLERFLERLQPRYSYDDKYAMDVWGQGTTVTVSS
VL: DIVMTQSPGTLSLSPGARATLSCRASQSVSSIYLAWYQQKPGQAPRLLIFGASSRATGIPDRFSGSGSGTDFTLTISRLEPEDFAVYYCQQYGSSPYTFGQGTKLEIKR
Consider B8, for which the OD was found to be 0.1 OD in [4], 0.2 OD in experiment [1], 0.2 OD in experiment [5] and 0.1 OD in experiment [6].

B9: TRL1216 (antibody, V domains shown)
VH: QVQLVESGGGVVQPGGSLRVSCAASAFSFRDYGIHWVRQAPGKGLQWVAVISHDGGKKFYADSVRGRFTISRDNSENTLYLQMNSLRSDDTAVYYCARLVASCSGSTCTTQPAAFDIWGPGTLVTVSS
VL: DIMLTQPPSVSVSPGQTARITCSGDALPKKYTYWYQQKSGQAPVLLIYEDRKRPSEIPERFSAFTSWTTATLTITGAQVRDEADYYCYSTDISGDIGVFGGGTKLTVL
Take B9: the OD in experiment [4] came out at 0.06 OD; in experiment [1] it was 0.5 OD.

B10: TRL1230 (antibody, V domains shown)
VH: QVQLVQSGGGLVKPGGSLRLSCGASGFNLSSYSMNWVRQAPGKGLEWVSSISSRSSYIYYADSVQGRFTISRDNAKNSLYLQMNSLRAEDTAIYYCARVSPSTYYYYGMDVWGQGTTVTVSS
VL: DIVLTQPSSVSVSPGQTARITCSGDELPKQYAYWYQQKPGQAPVLVIYKDNERPSGIPERFSGSSSGTTVTLTISGVQAEDEADYYCQSADSSGTYVVFGGGTKLTVL
For the molecule B10, the OD in experiment [4] worked out at 0.06 OD; in experiment [1] it was 0.1 OD; in [5] it was 0.3 OD; in [6], 0.07 OD.
